According to the DeepSol protein solubility set:

Test: soluble on expression in E. coli; label from the status in PepcDB or PDB records

| Sequence | soluble on expression in E. coli |
| --- | --- |
| MGSDKIHHHHHHMVAIDLPYDKRTITAQIDDENYAGKLVSQAATYHNKLSEQETVEKSLDNPIGSDKLEELARGKHNIVIISSDHTRPVPSHIITPILLRRLRSVAPDARIRILVATGFHRPSTHEELVNKYGEDIVNNEEIVMHVSTDDSSMVKIGQLPSGGDCIINKVAAEADLLISEGFIESHFFAGFSGGRKSVLPGIASYKTIMANHSGEFINSPKARTGNLMHNSIHKDMVYAARTAKLAFIINVVLDEDKKIIGSFAGDMEAAHKVGCDFVKELSSVPAIDCDIAISTNGGYPLDQNIYQAVKGMTAAEATNKEGGTIIMVAGARDGHGGEGFYHNLADVDDPKEFLDQAINTPRLKTIPDQWTAQIFARILVHHHVIFVSDLVDPDLITNMHMELAKTLDEAMEKAYAREGQAAKVTVIPDGLGVIVK | not soluble |
| MGSDKIHHHHHHMDLSNLNEKDMALGCKYCIKGEKLVLYITGLCEESCYYCPLSEKRKKKDVIFANEKQINSIEEAVEEARLCGSKGVGITGGNPLLRIERTVEYLKALKEEFGSDFHAHLYTTPKFVSEKNLKLLKDAGLDEIRLHSSKLFNDFENFDKLDFLEKLKLCKNYIKDVGVEIPGIPNFEKEILDLAFEIDKIGVKFLNINELEYSETNYQSLIDRGFSEKDDTTSRISGSFETAKYIIDNFKGKLIIHFCPSSLKDSVQMKNRLINRARNVAKPYEEITEEGLLLKGTINFKDLKDVSEVLEVLKENDVEFELLNDRLLLNPEILEDLIDHLKENNFDFKFSAYISEYYPTSDKLEVERIPLVTKKPNLKLKKK | not soluble |
| MSLAIQLGKDYTMLSTPQPVADPKKVEVIEFFSYHCIHCYDDDPAFNAWSKTLPADVSFRKEQIVWQKSMEGFARMFATFNATGTFDKLHRAAFDAQIKQRVDLSKPEQFTGWIKQQKGVDSAKLLQTYNSFGINAQVARATKITRDYQIQGTPTVIVNGKYVVVTATPERMIQVMNELVAKAREGHHHHHH | soluble |
| IIGQVDEISTTDLIEEEENAVLITAEGYAKRMSLEEFRVQSRGGVGVIGASVSPGDEIAVFRICNSTDRLLIFTNTGRAFWINAYEIPKMDRTARGTTLKRLIRLENGEKVVSALGVKDF | soluble |
| MANKETDILIIGGGLTGASLSLALQGLGFSVTLVESRPYSDKVNPDFDARSLALSPASQRILAMLGVWEILKEYTTPIHMIHVSDQHRFGASRLHGEKNSPLGYVVEMQYINRALSILINKEHLLTPAALKSIDFNNSTATVAHGDDMISIRAQLIVAADGTESMTRYLCNLPVKIKDYAQDAIVANVGLIKPHGNRAFERFTPNGPLALLPMMNDKMSLVWASKPEEAKRLVMLNDDDFLRELQTAFGYRLGRFGKVGKRYSYPLKQVLMPQQTKWPVVFVGNAAHTLHPVAGQGFNLGLRDIAALAQCISQKGLNPQMLEHYLQLRAHDQQMITWLTDGLIHLFTSRLPGMGVARNLGLLALDNIPALKNLLARYARGFGGITPDLVCEIALSAGEFQLEHHHHHH | soluble |
| MAHHHHHHMGNTTDPGAAPLHSSGFFKISARFPKAAVAASGAGPSLKRRRAEAFVVGDDGVPTLRTTAIAPGEQVGGDGTAEPFEFFKAQQDAFMNDIEGIKDAQLQRFNRKARRIMKSRRAWASSSSSGRHANSQQHSSSSGTHVTGSGALSKTGAKKTKPKRY | soluble |
| MGSDKIHHHHHHMARYYMPAEGDSYLKKVWTWATTGKRFRPSFPRTIEFQTLSTCNAKCIFCPHKHSPKDIPHGRMDDALFRKIVDECARHFVGRVSPYLTNEPLMDKRMPEMLRYIHDKMPFFTKSKINTNAALLTEETGEALIRAGLTHLWISVNGYSPETYRTSMDLDLDRTLTNIDTFLATKRRLGAKNPKVIVTTVETNIVKPELDYARKYWKERDIVFKVHAMDNRAGADSLTFKASKPKLKRNCDLFLKQAYIVENGDMIICCHDWKQTVKVGNVAETSIKEVWNSRYFTDLIRDYVRGDYSRLGICAKCSS | not soluble |
| MSTIAAGRFAKDDVDQDTKWWKEYPSKHYIERARPQNYYDEFVQNAWSKSKRLARAASFTNLTYIKDKDMDFPIRKSDSVSTLAPSLALPQYCREAQRIVHTVPVYKPTVHDWYNKSYSDARWRDTHREINKPYKPLDTYISPASSHVPYYSFQTKRIFFDEKARQLAPYLKESQRYMDRYVSSRLKADDYANRFAYTAYEWRKPQDHSFNREFMTTQGVFVATPTGIPHQHYDKFGMRRLYKRTGRFFF | not soluble |
| MLLETTPIKANHLRSILDYIEQEQLTAEDRNHCMKLSKKKSIEKKTIHPTVNLNGSACFLQSPSDAIFCRHLSLQYALDSLRNGKGKVNLIKHYSSVESIQQHVPLVRDAEFRALLRHPPAGSRVIASKDFGFALDIFFCRMMANNVSHMSAILYIDNHTLSVRLRIKQSVYGQLNYVVSVYDPNDTNVAVRDTHRTARGFLSLDKFISSGPDAQTWADRYVRNCAIAILPLLPVGVPGAIFAGIASRMPFAPIHPSAMLLIMATGQSQQLITLFKQLPILPEKEIIEIITAQNSVGTPALEHHHHHH | soluble |
| GPGPSRPSASWQNSVSERPPYSYMAMIQFAINSTERKRMTLKDIYTWIEDHFPYFKHIAKPGWKNSIRHNLSLHDMFVRETSANGKVSFWTIHPSANRYLTLDQVFKPLDPGSPQLPEHLESQQKRPNPELRRNMTIKTELP | soluble |
| MEAQAQGLLETEPLQGTDEDAVASADFSSMLSEEEKEELKAELVQLEDEITTLRQVLSAKERHLVEIKQKLGMNLMNELKQNFSKSWHDMQTTTAYKKTHETLSHAGQKATAAFSNVGTAISKKFGDMSYSIRHSISMPAMRRK | soluble |
| MGKFSNQKKNRVKNKVAVTVKKAQRMKADAKNAKKDGEVDVEMKEEVVRVRGLAVSSLKKLASGELQNVPKVNEKKIIRKTELPVRENKKILDAPTGKRGTTAQYITKKKAKKMYKKMTHDARDKYRKIQAELAGDGEDDEEGEAEVMEQ | not soluble |
| MTPPRMRISGENELVQALLEHGHVLVEASEAELIFDPTQLVRRGQIVAHLGHATLADLDAYSSGHAFVLTELMPQIYAVTASDELAGMVAELLISELGGRVVHVPESQRDRLTAGLACAGFIGQVRSEARNLLTEALGNAHHADEVVEQLTDAVAPPLNVAALERGYHAIDSVGTKRLYAQLARRSGEVFRNNDVELWAMNQEQNNT | not soluble |
| MFARDIGIDLGTANVLIHVKGKGIVLNEPSVVAIDRNTGKVLAVGEEARSMVGRTPGNIVAIRPLKDGVIADFEITEAMLKYFINKLDVKSFFSKPRILICCPTNITSVEQKAIREAAERSGGKTVFLEEEPKVAAVGAGMEIFQPSGNMVVDIGGGTTDIAVLSMGDIVTSSSIKMAGDKFDMEILNYIKRKYKLLIGERTSEDIKIKVGTVFPGARSEELEIRGRDMVTGLPRTITVCSEEITEALKENAAVIVQAAKGVLERTPPELSADIIDRGVILTGGGALLHGIDMLLAEELKVPVLIAENPMHCVAVGTGIMLENIDKLPRRALK | not soluble |
| MAHHHHHHMAFAGSNDVLKVQKMLQVLVEKRSDKKVNMDGSAKPTDQPHHPAPCGNAVDGKAPQGADAKGPLLDGKRANPTLGSSKSAKTGPAD | not soluble |
| GKRDNLEIDRTGLALTAFYARNLAVPERRRVEHPQVLRGKQLFHEAGCPACHVPKFVTHRLKDQPEQSFQLIWPYTDLLLHDMGEGLADGRPEGRATGREWRTAPLWGIGLTEQVSGHANFLHDGRARSILEAVLWHGGEAEAARARVMALPAPDRAALVAFVEDL | not soluble |
| MCGIVGYIGNNEKKQIILNGLKELEYRGYDSAGMAVMQEGELSFFKAVGKLENLANKCTDFESQGYGFAIGHTRWATHGKPTEINAHPHLGQYSCVIHNGIIENYKEIKDKLEKEGVSFLSQTDTEVIVQLFEFYARNLGVFEAWQKTIKELRGAFATLLVTKKDPNHVYFAKNAAPLIIGKNANKEWYFSSGDAPLIGSCDEVMYLEDLSLGYASKDELVVYENDILKSLCFSKLSGDKAYAKKDGFRFFMEKEIYEQSRVMSEVLMGRIQGDEVVFDELNNEDLSQVDEITLCACGTSYHAAMASAYLFERIAKVKAKVEIASEFRYREAIIKKDSLFIVISQSGETADTLEALKIAKEQGAKTFAICNVDNSNIVRLAHLSLLTRAGIEKGVASTKAFATQVLTLWMLAIFMAQKRNLNVSAEIKALLHTPNCVSVKQALHEKIHRLSKRYLDGHGFFFIGRDVFYPLALEGALKLKELSYLHAEGYPAGEMKHGPIALADSKLYTIALMPKHMLYEKTKSNVEELIARDSTVLSISPLEFDLSDDFIKTNEQDHYMCEFFEMMVITQLLAMEISIRLGNDVDMPRNLAKSVTVE | not soluble |
| MKTEEMKFINESEFKKLKHYFEQKNTTSSLVLLVALTTGGRFSEIAKLKREDLDIKNNKIHLRGTKTETSDRIISIDTVTMKRIQSFIDSRPTNISGYIFTVDGKTITNAAVNKVLRKACANLNIKEITIHSLRHSFCSILIHHGFSILYISKHLGHSNPATTQSIYSHLLEHHHHHH | soluble |
| MAHHHHHHMNFLNDEILKKSCEIEKLQDRLLDYESKLLIYENNNEIKILKKNEDHLRKLLSKHIHRNEQLLNTTFLLQKSTLENNSLEKKIIELRAKSYRKDQEIKKLQETKSIRKSPSSNCSHNSQEYSMDLIDDLNEDNYNLKYYHNNSIVGDQENSVYTSKKSYDKNITIGSLADTEKRSIKIKNIIPHSHNNEDPVHFALCEYLNCFKKNNLSIKINKLDDNTYLLNDKKVVISFINGDLYVEDDASPIKLQDYLLKTVVR | soluble |
| MKVIMTTKVDKASMNIMNKLIENFGFKETEYVFDGNPVYKRGDVLILTTNDEMIYYDYLDREIENQLGFKPEIIAFASRHSSKQKLPALTTHVTGNWGKAMYGGKDESFAVAIPSAMKLSLLKMSELNDLGWTVCYEATHHGPTELEVPSFFIEIGSSEEEWINDRAGEIIAETIIYVLDNYEKGRSKFKVALGIGGGHYAPKQTKRALEGDLAFGHILPKYAQPVSRDVMIKALNRFGEKVEAIYVDWKGSRGETRQLAKSLAQELGLEFIKD | soluble |
| MKIIKRSGSEVTFDISKIMAAVSKANMEVVHSERLSEEQIETISNNVESICKEMNRSLSVEEIQDLVENQIMNLRAFAVARKYITYRYKRALVRKSNST | not soluble |
| MNSPDIALIKTYLLTLQDNICAALAQADGHAEFTEECWVREEGGGGRSRVLVNGAVFEQAGVNFSHVSGAMLPASATAHRPELAGRSFQALGVSLVIHPLNPYLPTSHANVRFFIAEKPGEDAVWWFGGGFDLTPYYGFEEDAIHWHQVAHSLCQPFGEQIYPRYKKWCDDYFYIKHRQEARGIGGLFFDDLNSPDFMTCFNFTQAVGDGFLAAYMPIVARRKALGWGDRERQFQLYRRGRYVEFNLVWDRGTLFGLQTGGRTESILMSLPPLVRWEYNYQPEADSAEAALYRDFLPVKDWLAIKGETH | not soluble |
| MITVSIVSHGQSTLVEQLLADLVRLDMSMVTEVLVTLNIPEDISSKPGDYPYPVRILRNTAARGFGANHNAAFRQAEGEWFCVMNPDIRLINNPFPILIEEGAYDSAGVIAPMVVTPSGMIEDSVRCFPVLTSLAAKLFGHGDGRYLFAAGDEAFAADWVAGMFMLFRTEDFRAVGGFDEGFFLYYEDVDICARLWKSGRSVLACPKASVIHDARRSSRRNLRYMKWHALSLIRYFWKHWGRLPQTPEQLEHHHHHH | soluble |
